# Assay: yeast display, Sf9 membrane polyspecificity reagent, FACS + sequencing; frameworks hold sequencing errors
# In short: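 In a synthetic yeast display library (Saccharomyces cerevisiae BJ5465), nanobody expression was induced with galactose for 36–48 hours. FACS gates were set low and high (top ~1%) using anti-HA fluorescence for expression and streptavidin fluorescence for binding of the Sf9 membrane reagent. Each polyreactivity label is drawn from the gate of origin.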
row,Sequence,polyreactivity (PSR sort gate)
1,QVQLVESGGGLVQAGGSLRLSCAASGSIFIFNAMVWYRQAPGKEREFVARIRRDSSTYYADSVKGRFTISRDNAKNTVYLQMNSLKPEDTAVYYCAAKRVYRRVELNSWGQGTQVTVSS,low polyreactivity
2,QVQLVESGGGLVQAGGSLRLSCAASGSIFIGYAMGWYRQAPGKERELVAAITSGGSTYADSVKGRFTISRDNAKNTVYLQMNSLKPEDTAVYYCAAPRTYYSELTSPYDYWGQGTQVTVSS,low polyreactivity
3,QVQLVESGGGLVQAGGSLRLSCAASGSIFILYAMVWYRQAPGKERELVAAISSTGTTYYADSVKGRFTISRDNAKNTVYLQMNSLKPEDTAVYYCATDEPSSGRTPYDYWGQGTQVTVSS,low polyreactivity
4,QVQLVESGGGLVQAGGSLRLSCAASGSIFINNAMGWYRQATGKERELVSAIRRGDSTTYADSVKGRFTISRDNAKNTVYLQMNSLKPEDTAVYYCATSPWWYGYAAYGMDYWGQGTQVTVSS,low polyreactivity
5,QVQLVESGGGLVQAGGSLRLSCAASGSIFIPNAMGWYRQAPGKERELVAAITSGGRTYYADSVKGRFTISRDNAKNTVYLQMNSLKPEDTAVYYCAARSGYRYVESDYWGQGTQVTVSS,high polyreactivity
6,QVQLVESGGGLVQAGGSLRLSCAASGSIFIPYAMGWYRQAPGKERDLVAAIRYSGASTYYADSVKGRFTISRDNAKNTVFLQMNSLKPEDTAVYYCAARVVDQEVGRPYYYWGQGTQVTVSS,high polyreactivity
7,QVQLVESGGGLVQAGGSLRLSCAASGSIFIQYAMGWYRQAPGKERELVAAITSGDDTYYADSVKGRFTISRDNAKNTVYLQMNSLKPEDTAVYYCAKRAHFSSARHVYYIYDYWGQGTQVTVSS,low polyreactivity
8,QVQLVESGGGLVQAGGSLRLSCAASGSIFIRYVMGWYRQAPGKERELVAAITGSGSRTYYADSVKGRFTISRDNAKNTVYLQMNSLKPEDTAVYYCAADWTKSRRYYWGQGTQVTVSS,high polyreactivity
9,QVQLVESGGGLVQAGGSLRLSCAASGSIFISYAMGWYRQAPGKESELVDAINYSGGSTYYADSVKGRFTISRDNAKNTVYLQMNSLKPEDTAVYYCAKRSTYRYYGYKLRDYWGQGTQVTVSS,low polyreactivity
10,QVQLVESGGGLVQAGGSLRLSCAASGSIFITYAMGWYRQAPGKERELVAAIRDSGDRTYYADSVKGRFTISRDNAKNTVYLQMNSLKPEDTEVYYCNALWQEPLKYDYWGQGTQVTVSS,low polyreactivity
11,QVQLVESGGGLVQAGGSLRLSCAASGSIFIVNAMGWYRPAPGKERELVAAISRSGGRTYYADSVKVRFTISRDNAKNTVYLQMNSLKPEDTAVYYCNARSRARKVAYDYWGQGTQVTVSS,high polyreactivity
12,QVQLVESGGGLVQAGGSLRLSCAASGSIFIWYAMGWSRQAPGKEREFVAAITYTGTSTYYADSVKGRFTISRDNAKNTVYLQMNSLKPEDTAVYYCAADKSTHPFPSDPGYGYWGQGTQVTVSS,low polyreactivity
13,QVQLVESGGGLVQAGGSLRLSCAASGSIFIWYAMGWYRQAPGKERELVAAITSSGSTNYADSVKGRFTISRDNAKNTVYLQMNSLKPEDTAVYYCADEYTYYTYNLNYWGQGTQVTVSS,low polyreactivity
14,QVQLVESGGGLVQAGGSLRLSCAASGSIFIWYTMGWYRQAPGKERELVAAIDWNSGSTYYADSVKGRFTISRDNAKNTVYLQMNSLKPEDTAVYYCAATTFSGWFIFYYWGQGTQVTVSS,low polyreactivity
15,QVQLVESGGGLVQAGGSLRLSCAASGSIFIYYAMGWKRQAPGKERELVAAISWRGGGTYYADSVKGRFTISRDNAKNTVYLQMNSLKPEDTAVYYCAADFYDPFDYWGQGTQVTVSS,low polyreactivity
16,QVQLVESGGGLVQAGGSLRLSCAASGSIFIYYAMGWYRQAPGKERELVAAINIGGSTYYADSVKGRFTISRDNAKNTVYFQMNSLKPEDTAVYYCNAATWYRVYPYYIIFDYWGQGTQVTVSS,low polyreactivity
17,QVQLVESGGGLVQAGGSLRLSCAASGSIFKANAMGWYRQAPGKERELVATISTSSGGTYYADSVKGRFTISRDNAKNTVYLQMNSLKPEDTAVYYCAALTYPPFYWGQGTQVTVSS,high polyreactivity
18,QVQLVESGGGLVQAGGSLRLSCAASGSIFKFYAMGWYRQAPGKERELVAAISSSGTSTYYADSVKGRFTISRDNAKNTVYLQMNSLKPEDTAVYYCAARGGVQNEVKGSPYYYWGQGTQVTVSS,high polyreactivity
19,QVQLVESGGGLVQAGGSLRLSCAASGSIFKGYAMGWYRQAPGKERELVAAISIRGGSTYYADSVKGRFTISRDNAKNTVYLQMNSLKPEDTAVYYCAASSKRKYLYNYWGQGTQVTVSS,high polyreactivity
20,QVQLVESGGGLVQAGGSLRLSCAASGSIFKGYTMGWYRQAPGNERELVASMRPRGGSTYYADSVKGRFTMSRHNAKNPVDLQMNSLKPEDTAVYYCAAPWGGFAGQERKYDYWGQGTQVTVSS,low polyreactivity
21,QVQLVESGGGLVQAGGSLRLSCAASGSIFKHNAMGWYRQAPGKERELVATISESGGSTYYADSVKGRFTISRDNAKNTVYLQMNSLKPEDTAVYYCNTDYDYGWWDLGEYDYWGQGTQVTVSS,low polyreactivity
22,QVQLVESGGGLVQAGGSLRLSCAASGSIFKINAMGWYRQAPGKERELVATITWSTGTSYYADSVKGRFTISRDNAKNTVYLQMNSLKPEDTAVYYCATDGDSTKLDYWGQGTQVTVSS,low polyreactivity

row,Sequence,polyreactivity (PSR sort gate)
1,QVQLVESGGGLVQAGGSLRLSCAASGSIFKINAMGWYRQAPWKERDFVAAITWSGGSTYYADSVKGRFTISRDNAKHTVYLQMNSLKPEDTAVYYCNARYFNYSTFGGKMGYWGQGTQVTVSS,high polyreactivity
2,QVQLVESGGGLVQAGGSLRLSCAASGSIFKINTMGWYRQAPRQERELVAAISKRGGSTYYADSVKGRFTISRDNAKITVYLQMNSLKPDDTAVYYCAAREFYKYYYWGQVTQVTVSS,high polyreactivity
3,QVQLVESGGGLVQAGGSLRLSCAASGSIFKIYAMGWYRQAHGKERELVAAISRRGSSTSYADSVKGRFTISRDNAKNTVYLQMNSLKPEDTAVYYCAARYISNPMDYWGQGTQVTVSS,high polyreactivity
4,QVQLVESGGGLVQAGGSLRLSCAASGSIFKKYAMGWYRPAPGKERELVAAITRGTYYADSVKGRFTISRDNAKNTVYLQMNSLKPEDTAVYDCNREYWGRGYYRVRGEYDYWGQGTQVSVSS,low polyreactivity
5,QVQLVESGGGLVQAGGSLRLSCAASGSIFKKYAMGWYRQAPGKERELVAAITSGGSTYYADSVKGRFTISRDNAKNTVYLQMNSLKPEDTAVYYCATYRKGSLGSWGQGTQVTVSS,high polyreactivity
6,QVQLVESGGGLVQAGGSLRLSCAASGSIFKLNAMGWYRQAPGKERELVAVINKSGGRTYYADSVKGRFTISRDNAKNTVYFQMNSLKPEDTAVYYCNAVSKLAVNLDYWGQGTQVTVSS,high polyreactivity
7,QVQLVESGGGLVQAGGSLRLSCAASGSIFKLNAMGWYRQAPGKERELVAVINKSGGRTYYADSVKGRFTISRDNAKNTVYLQMNSLKPEDTAVYFCNAVSKLAVNLDYWGQGTQVTVSS,high polyreactivity
8,QVQLVESGGGLVQAGGSLRLSCAASGSIFKPYAMGWYRQAPGKERELVAAISTRGSSTYYADSVKGRFTISRDNAKNTVYLQMNSLIPEDTAVYYCAKRRYLWGYEYDSWGQGTQVTVSS,high polyreactivity
9,QVQLVESGGGLVQAGGSLRLSCAASGSIFKVNTMGWHRQAPGTERELVAAISSSDDSTYYADSVKGRFTISRDNAKNTVYLQMNSLKPEDTAVYYCAADGSSVDSGGINDEYWGQGTQVTVSS,low polyreactivity
10,QVQLVESGGGLVQAGGSLRLSCAASGSIFKVNTMGWYRQAPGKERELVAAISSSDDSTYYADSVKGRFTISRDNAKNTVYLQMNSLKPEDTAVYYCAADGSSVDSGGINDEYWGQGTQVTVSS,low polyreactivity
11,QVQLVESGGGLVQAGGSLRLSCAASGSIFKVNTMGWYRQAPGKERELVAAISYSGGSTYYADSVKGRFTISRDHAKNTVYLQMNSLKPEDTAVYYCNVSPTTSGDGGGYDSWGQGTQVTVSS,low polyreactivity
12,QVQLVESGGGLVQAGGSLRLSCAASGSIFKYYAKGWYRQAPGKERELVAAITIGGNTNYADSVKGRFTISRDNAKNTVYLQMNSLKPEDTAVYYCATGGYYSAIVYGGYDYWGHGTQVTVSS,low polyreactivity
13,QVQLVESGGGLVQAGGSLRLSCAASGSIFKYYAMGWYRQAPGKERELLADISFGGDSTYYADSVKGRFTISRDNAKNTVYLQMNSLIPEDTAVYYCAAAPYFWFVEYDYWGQGTQVTVSS,low polyreactivity
14,QVQLVESGGGLVQAGGSLRLSCAASGSIFKYYAMGWYRQAPGKERELVAAINSGGDTYYADSVKGRFTISRDNAKNTVYLQMNSLKPEDTAVYYCAAYGYAGYAHRDMDYWGQGSQVTVSS,low polyreactivity
15,QVQLVESGGGLVQAGGSLRLSCAASGSIFKYYAMGWYRQAPGKERELVAAISSGGRTYYADSVKGRFTISRDNAKNTVYLQMNSLKPEDTAVYYCNRPPWSRGSNYWGQGTQVTVSS,high polyreactivity
16,QVQLVESGGGLVQAGGSLRLSCAASGSIFKYYAMGWYRQAPGKERELVAAITGSGGNTYYADSVKGRFTISRDNAKNTVYLQMNSLKPEDTAVYYCAATYWWAYVWAYSHVKSTNDYWGQGTQVTVSS,low polyreactivity
17,QVQLVESGGGLVQAGGSLRLSCAASGSIFKYYAMGWYRQAPGKERELVAAITSSGARTYYADSVKGRFTISRDNAKNTVYLQMNSLKPEDTAVYYCRGYVRDQSKYDYWGQGTQVTVSS,high polyreactivity
18,QVQLVESGGGLVQAGGSLRLSCAASGSIFKYYTMGWYRQAPGKDRELVAAISSGGSTTYADSVKGRFTISRDNAKNSVYLQMNSLKPEDTAVYCCAAGYGYPTFVERDYWGHGTQVTVSS,high polyreactivity
19,QVQLVESGGGLVQAGGSLRLSCAASGSIFLENTMGWYRQAPGKERELVAAITSSGDSTYADSVKGRFTISRDNAKNTVYLQMNSLKPEDTAVYYCNKDYDDIAPTRAVLDRYDYWGQGTQVTVSS,low polyreactivity
20,QVQLVESGGGLVQAGGSLRLSCAASGSIFLFYTMGWYRQAPGKERELVASSSGGGTHYADSVKGRFTISRDNAKNTVYLQMNSLKPEDTAVYYCATPNKNGQNLGGVWEAYDYWGQGTQVTVSS,low polyreactivity
21,QVQLVESGGGLVQAGGSLRLSCAASGSIFLFYTMGWYRQATGKERELVAAISYSGGNTYYADSVKGRFTISRDNATNTVYLQMNSLKPEDTAVYYCNVRTQWARYDYWRQGTQVTVSS,high polyreactivity

# Source: the nanobody polyreactivity screen of Harvey et al. (2022)
